The record followed here is publication PMC11091522.

Sequences and labels used below:
B1: CD3 Apt5 monomer (XNA)
RNA: GGGAGAGAAGGAUAGGGCCUUGCCUGCUUUCACGUGUGAUCCCUGCCCGUUUCCUUAUACCUCCUUUCCC
modifications: 2'-fluoro pyrimidines
B2: CD3 Apt1 monomer (XNA)
RNA: GGGAGAGAAGGAUAGGGCCCCGAUUGAUUCGCAAUGUGCGUCCCCUCGUGCCUUCCUUAUACCUCCUUUCCC
modifications: 2'-fluoro pyrimidines
B3: CD3 Apt3 monomer (XNA)
RNA: GGGAGAGAAGGAUAGGGUCCCUACCUGAAACUCGAAGAUGAGCCCUGUCUGAUUCCUUAUACCUCCUUUCCC
modifications: 2'-fluoro pyrimidines
B4: CD3 Apt12 monomer (XNA)
RNA: GGGAGAGAAGGAUAGGGUCCCCUGUCGAUAUCCACCGUCUGGCCCGCAUUGAUUCCUUAUACCUCCUUUCCC
modifications: 2'-fluoro pyrimidines

The target of this data set is T1, rmCD3δε-Fc (CD3 delta/CD3 epsilon heterodimer) (mouse, UniProt P04235;P22646 22-105;22-108).
T1 sequence 1: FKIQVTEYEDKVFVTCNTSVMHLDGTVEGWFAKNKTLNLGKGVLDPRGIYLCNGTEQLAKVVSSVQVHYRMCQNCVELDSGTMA
T1 sequence 2: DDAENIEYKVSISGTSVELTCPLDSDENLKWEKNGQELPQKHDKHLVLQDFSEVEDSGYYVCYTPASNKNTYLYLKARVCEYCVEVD
Put plainly: filter binding.
As for B1, the binding result is “binds”. The value for B2 was “binds”.

Consider B3, for which the binding result is on record as “binds”. For the molecule B4, the binding result was “binds”.
